Results taken from publication PMC11582070, “Template-assisted covalent modification underlies activity of covalent molecular glues” (Nature Chemical Biology, 2023).

Molecular target: recombinant BRD4BD2 (residues 368-440) (human) (UniProt O60885)

Chain of GAK_(14–351)-HA (O14976 14-351): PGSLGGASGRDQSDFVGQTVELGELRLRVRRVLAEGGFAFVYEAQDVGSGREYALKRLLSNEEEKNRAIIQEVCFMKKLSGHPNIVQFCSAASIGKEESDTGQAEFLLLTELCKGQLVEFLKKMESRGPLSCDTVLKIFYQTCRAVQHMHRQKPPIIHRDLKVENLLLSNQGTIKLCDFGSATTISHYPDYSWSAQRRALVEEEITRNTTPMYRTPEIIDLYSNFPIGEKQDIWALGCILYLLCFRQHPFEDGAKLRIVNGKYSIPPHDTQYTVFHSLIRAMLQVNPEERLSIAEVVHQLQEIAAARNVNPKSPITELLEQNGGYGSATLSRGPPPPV

intact protein mass spectrometry: MMH2 adduct on recombinant GAK 14-351 with BRD4BD2 present, 4 °C 16 h (approximately 2% without BRD4BD2): 22%
intact protein mass spectrometry: TMX1 adduct on recombinant GAK 14-351 with BRD4BD2 present, 4 °C 16 h (none detectable without BRD4BD2): 5%
Substance: GAK_(14–351)-HA (from UniProt O14976 14-351) (domain or fragment)
